# In PMC4906244:
# Tested on: His6-ComPsub (Neisseria subflava NJ9703), PDB:2NBA_1
# Assay: SPR
# Details: DNA immobilized on neutravidin chip; EMSA: 20 mM Tris-Cl pH 8, 50 mM NaCl, 2.5 mM Mg2+, ambient temperature; SPR: 20 mM Tris pH 8, 150 mM NaCl, 0.05% Tween 20, 25 C; NMR: 50 mM sodium phosphate pH …
sequence,measurement,value
TGACCAGGCCGTCTGAACAAAC (double strand) [DUSvar1 ds primer (biotinylated)],Kd,52.7 µM
